Measured values reported in patent publication US20240263193A1.
Numbering of substitutions follows the chain as printed.

Columns and labels:
Assay in all cases: cell-based or functional assay
[1] = target: T1, BAD (N-terminal BAD peptide)
T1 sequence (peptide): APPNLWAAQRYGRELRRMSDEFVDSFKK

Bad(F) = target: T2, Bad(F)
T2 sequence (peptide): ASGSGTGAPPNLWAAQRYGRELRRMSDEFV

BAD(V) = target: T3, BAD(V)
T3 sequence (peptide): T2 sequence (peptide) with F29V

BAD(G) = target: T4, BAD(G)
T4 sequence (peptide): T2 sequence (peptide) with F29G

Bad(L) = target: T5, Bad(L)
T5 sequence (peptide): T2 sequence (peptide) with F29L

MS1(I17G) = target: T6, MS1(I17G)
T6 sequence (peptide): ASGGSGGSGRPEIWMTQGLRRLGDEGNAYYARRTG

MS1(I17A) = target: T7, MS1(I17A)
T7 sequence (peptide): T6 sequence (peptide) with G26A

Bcl-TEV IRES iADAR = target: Bcl-TEV IRES iADAR

Chain of Bcl-xL (Q07817 4-198 limits assumed): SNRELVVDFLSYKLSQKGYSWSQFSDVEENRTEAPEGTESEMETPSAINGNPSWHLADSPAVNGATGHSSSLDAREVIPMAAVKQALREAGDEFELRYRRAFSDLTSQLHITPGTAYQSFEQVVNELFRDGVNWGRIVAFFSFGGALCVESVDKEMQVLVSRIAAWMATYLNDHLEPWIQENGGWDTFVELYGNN
Chain of Mcl-1 (Q07820 172-327 limits assumed): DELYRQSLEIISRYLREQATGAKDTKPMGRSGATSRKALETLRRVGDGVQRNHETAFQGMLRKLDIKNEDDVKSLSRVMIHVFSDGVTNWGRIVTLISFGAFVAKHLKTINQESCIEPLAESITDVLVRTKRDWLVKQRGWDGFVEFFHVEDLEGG

Which results are given for Bcl-xL (from UniProt Q07817 4-198)?
fold change of mNeonGreen/mCherry with A-1331852, nBAD-ADAR-cBcl-xL with unmutated DD, HEK cells, microscopy (intramolecular pair) [1]: 5.9 fold; Fold Change, 1 µM against 0 µM A-1331852, HEK cells, flow cytometry (intramolecular pair) (Bad(F)): 37 fold; median ratio of mNeonGreen to mCherry, 0 µM A-1331852, HEK cells, flow cytometry (intramolecular pair) (Bad(F)): 0.026; median ratio of mNeonGreen to mCherry, 1 µM A-1331852, HEK cells, flow cytometry (intramolecular pair) (Bad(F)): 0.962; Fold Change, 1 µM against 0 µM A-1331852, HEK cells, flow cytometry (intramolecular pair) (BAD(V)): 14.4 fold; median ratio of mNeonGreen to mCherry, 0 µM A-1331852, HEK cells, flow cytometry (intramolecular pair) (BAD(V)): 0.0708; median ratio of mNeonGreen to mCherry, 1 µM A-1331852, HEK cells, flow cytometry (intramolecular pair) (BAD(V)): 1.02; Fold Change, 1 µM against 0 µM A-1331852, HEK cells, flow cytometry (intramolecular pair) (BAD(G)): 9.65 fold; median ratio of mNeonGreen to mCherry, 0 µM A-1331852, HEK cells, flow cytometry (intramolecular pair) (BAD(G)): 0.1; median ratio of mNeonGreen to mCherry, 1 µM A-1331852, HEK cells, flow cytometry (intramolecular pair) (BAD(G)): 0.968; Fold Change, 1 µM against 0 µM A-1331852, HEK cells, flow cytometry (intramolecular pair) (Bad(L)): 23.2 fold; median ratio of mNeonGreen to mCherry, 0 µM A-1331852, HEK cells, flow cytometry (intramolecular pair) (Bad(L)): 0.0389; median ratio of mNeonGreen to mCherry, 1 µM A-1331852, HEK cells, flow cytometry (intramolecular pair) (Bad(L)): 0.903

For Mcl-1 (from UniProt Q07820 172-327), which fold change of mNeonGreen/mCherry with S63845, MS1(I17G)-Mcl1 ADAR with unmutated DD, HEK cells, microscopy (intramolecular pair) (MS1(I17G)) is on record?
The fold change of mNeonGreen/mCherry with S63845, MS1(I17G)-Mcl1 ADAR with unmutated DD, HEK cells, microscopy (intramolecular pair) was 2.8 fold.

What about the fold change of mNeonGreen/mCherry with S63845, MS1(A)-Mcl1 ADAR with unmutated DD, HEK cells, microscopy (intramolecular pair) (MS1(I17A)) of the same substance?
The fold change of mNeonGreen/mCherry with S63845, MS1(A)-Mcl1 ADAR with unmutated DD, HEK cells, microscopy (intramolecular pair) was 12 fold.

How did the fold change of the mean RFU (mNeonGreen-to-mCherry), TEV protease against filler DNA, single-transcript IRES-iADAR, HEK cells, microscopy (Bcl-TEV IRES iADAR) turn out when “TEV Protease (from UniProt P04517 2038-2271) (enzyme)” was run?
Its fold change of the mean RFU (mNeonGreen-to-mCherry), TEV protease against filler DNA, single-transcript IRES-iADAR, HEK cells, microscopy is 17 fold.

And the fold change of the mean RFU (mNeonGreen-to-mCherry), dual addition of A-1331852 and TEV protease, single-transcript IRES-iADAR, HEK cells, microscopy (Bcl-TEV IRES iADAR)?
The fold change of the mean RFU (mNeonGreen-to-mCherry), dual addition of A-1331852 and TEV protease, single-transcript IRES-iADAR, HEK cells, microscopy was 32 fold.
